What was measured:
[1] = target: FuTraP-hASCT2-d17, human ASCT2 with a deletion of 17 amino acids of region C, fused to AcGFP (human) (UniProt Q15758)
[2] = target: FuTraP-hASCT2-d17, human ASCT2 with a deletion of 17 amino acids of region C, fused to AcGFP (human) (UniProt Q15758); remark: listed apart in the source
[3] = target: wild-type human ASCT2 fused to AcGFP (FuTraP-hASCT2-wt) (human) (UniProt Q15758)
[4] = flow cytometry, AcGFP MFI normalised to iRFP713 MFI; details: glycan lost; control: wild type (FuTraP-hASCT2-wt)
[5] = infection, dsRed-positive cells by flow cytometry; details: glycan lost; control: wild type (FuTraP-hASCT2-wt)
[6] = confocal microscopy, AcGFP with membrane dye; details: glycan lost; control: wild type (FuTraP-hASCT2-wt)

Syncytin-1 envelope glycoprotein of the chimeric virus MCAS(Sync1-MSC16)dsRed (cytoplasmic tail shortened to 16 amino acids) (from UniProt Q9UQF0 21-538) (natural protein)
infection of DF-1/LgBiT cells expressing the FuTraP variant by MCAS(Sync1-MSC16)dsRed, dsRed-positive cells by flow cytometry (reduced sensitivity compared to the wild type) [1]: 1.7%
spinoculation of cells expressing the FuTraP variant with MCAS(Sync1-MSC16)dsRed, infected (dsRed-positive) cells by flow cytometry [2]: 21%
spinoculation of cells expressing the FuTraP variant with MCAS(Sync1-MSC16)dsRed, infected (dsRed-positive) cells by flow cytometry [3]: 56%

B1: ASCT2: N212Q (protein)
parent chain: MVADPPRDSKGLAAAEPTANGGLALASIEDQGAAAGGYCGSRDQVRRCLRANLLVLLTVVAVVAGVALGLGVSGAGGALALGPERLSAFVFPGELLLRLLRMIILPLVVCSLIGGAASLDPGALGRLGAWALLFFLVTTLLASALGVGLALALQPGAASAAINASVGAAGSAENAPSKEVLDSFLDLARNIFPSNLVSAAFRSYSTTYEERNITGTRVKVPVGQEVEGMNILGLVVFAIVFGVALRKLGPEGELLIRFFNSFNEATMVLVSWIMWYAPVGIMFLVAGKIVEMEDVGLLFARLGKYILCCLLGHAIHGLLVLPLIYFLFTRKNPYRFLWGIVTPLATAFGTSSSSATLPLMMKCVEENNGVAKHISRFILPIGATVNMDGAALFQCVAAVFIAQLSQQSLDFVKIITILVTATASSVGAAGIPAGGVLTLAIILEAVNLPVDHISLILAVDWLVDRSCTVLNVEGDALGAGLLQNYVDRTESRSTEPELIQVKSELPLDPLPVPTEEGNPLLKHYRGPAGDATVASEKESVM
expression_or_secretion, percent_of_wt [4]: decreases
other: receptor-mediated sensitivity to viral infection [5]: no change
localisation_or_trafficking [6]: no change

From article PMC8220723
